Experimental data taken from patent publication US20260201396, “New LoxPsym Sites for Large-Scale Orthogonal Cre-Mediated Recombination” (VIB VZW, published 2026).
Positions count from the first letter of the chain named.

T1: Cre recombinase (Punavirus P1)
T1 chain: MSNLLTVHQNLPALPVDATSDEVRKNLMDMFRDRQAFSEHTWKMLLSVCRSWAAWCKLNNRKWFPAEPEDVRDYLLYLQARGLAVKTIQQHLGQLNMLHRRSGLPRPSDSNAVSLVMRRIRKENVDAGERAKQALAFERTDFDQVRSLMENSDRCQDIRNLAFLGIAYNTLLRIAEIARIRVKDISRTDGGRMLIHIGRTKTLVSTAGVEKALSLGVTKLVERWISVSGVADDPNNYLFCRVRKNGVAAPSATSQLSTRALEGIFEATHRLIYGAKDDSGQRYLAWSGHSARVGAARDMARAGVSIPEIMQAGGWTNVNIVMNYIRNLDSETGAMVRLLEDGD

B1: LoxPsym-TTA (dsDNA)
DNA 1: ATAACTTCGTATATTATATAATATACGAAGTTAT
DNA 2: B1 DNA 1
B2: LoxPsym-TAT (dsDNA)
DNA 1: B1 DNA 1 with T15A, A16T, T19A, A20T
DNA 2: B1 DNA 1 with T15A, A16T, T19A, A20T
B3: LoxPsym-TTG (dsDNA)
DNA 1: B1 DNA 1 with A16G, T19C
DNA 2: B1 DNA 1 with A16G, T19C
B4: LoxPsym-TAG (dsDNA)
DNA 1: B1 DNA 1 with T15A, A16G, T19C, A20T
DNA 2: B1 DNA 1 with T15A, A16G, T19C, A20T
B5: LoxPsym-ACT (dsDNA)
DNA 1: ATAACTTCGTATAACTTAAGTTATACGAAGTTAT
DNA 2: B5 DNA 1
B6: LoxPsym-GAT (dsDNA)
DNA 1: B5 DNA 1 with A14G, C15A, G20T, T21C
DNA 2: B5 DNA 1 with A14G, C15A, G20T, T21C
B7: LoxPsym-AAT (dsDNA)
DNA 1: B5 DNA 1 with C15A, G20T
DNA 2: B5 DNA 1 with C15A, G20T
B8: LoxPsym-GCG (dsDNA)
DNA 1: B5 DNA 1 with A14G, T16G, A19C, T21C
DNA 2: B5 DNA 1 with A14G, T16G, A19C, T21C
B9: LoxPsym-GCT (dsDNA)
DNA 1: B5 DNA 1 with A14G, T21C
DNA 2: B5 DNA 1 with A14G, T21C
B10: LoxPsym-CGC (dsDNA)
DNA 1: ATAACTTCGTATACGCTAGCGTATACGAAGTTAT
DNA 2: B10 DNA 1
B11: LoxPsym-CCG (dsDNA)
DNA 1: B5 DNA 1 with A14C, T16G, A19C, T21G
DNA 2: B5 DNA 1 with A14C, T16G, A19C, T21G
B12: LoxPsym-TAC (dsDNA)
DNA 1: B10 DNA 1 with C14T, G15A, C20T, G21A
DNA 2: B10 DNA 1 with C14T, G15A, C20T, G21A
B13: LoxPsym-CGG (dsDNA)
DNA 1: B10 DNA 1 with C16G, G19C
DNA 2: B10 DNA 1 with C16G, G19C
B14: LoxPsym-CAT (dsDNA)
DNA 1: B5 DNA 1 with A14C, C15A, G20T, T21G
DNA 2: B5 DNA 1 with A14C, C15A, G20T, T21G
B15: LoxPsym-CAG (dsDNA)
DNA 1: B10 DNA 1 with G15A, C16G, G19C, C20T
DNA 2: B10 DNA 1 with G15A, C16G, G19C, C20T
B16: LoxPsym-TGT (dsDNA)
DNA 1: B5 DNA 1 with A14T, C15G, G20C, T21A
DNA 2: B5 DNA 1 with A14T, C15G, G20C, T21A
B17: LoxPsym-GGT (dsDNA)
DNA 1: B5 DNA 1 with A14G, C15G, G20C, T21C
DNA 2: B5 DNA 1 with A14G, C15G, G20C, T21C
B18: LoxPsym-GGA (dsDNA)
DNA 1: B10 DNA 1 with C14G, C16A, G19T, G21C
DNA 2: B10 DNA 1 with C14G, C16A, G19T, G21C
B19: LoxPsym-TGC (dsDNA)
DNA 1: B10 DNA 1 with C14T, G21A
DNA 2: B10 DNA 1 with C14T, G21A
B20: LoxPsym-TCC (dsDNA)
DNA 1: B5 DNA 1 with A14T, T16C, A19G, T21A
DNA 2: B5 DNA 1 with A14T, T16C, A19G, T21A

Biological target: T1, Cre recombinase
Test: cell_activity; as above
Text: Similar to the development of the original LoxPsym site by Hoess et al. (1986 J Cell Biochem), we edited the spacer of the LoxP site to obtain new non-directional recombination sites. In doing so, we focused on altering the first three nucleotides of the spacer (FIG. 2), as it was shown before that changing the nucleotides at position 4 and 5 of the spacer (T and A respectively) prevents recombination (Hoess et al 1986). The last three nucleotides were adapted accordingly to ensure the spacer remained palindromic. As such, we were able to design maximally 63 new potential LoxPsym sites. To test if the Cre enzyme was still able to recombine the new LoxPsym variants, we conducted a fluorescent-based assay in yeast via genomic integration of a fluorescence cassette which was flanked by identical LoxPsym variants at both sites (FIGS. 3A and 3C). Recombination of functional LoxPsym variants enables the deletion of the fluorescence cassette. The fraction of non-fluorescent cells in the population after induction of Cre-mediated recombination, was used to determine the recombination efficiency of the new LoxPsym sites. To verify if this set-up is valid for estimation of the recombination efficiency, the dual-fluorescent-reporter system shown in FIG. 3A was used to assess the frequency of inversion/deletion over time. […] Recombination efficiencies largely altered between different LoxPsym variants (Table 1). 63 new LoxPsym variants were obtained with altering recombination efficiencies ranging from 13% to 89%.

Row | Binder | activity
1 | B1 | 35.8%
2 | B2 | 89.3%
3 | B3 | 80.6%
4 | B4 | 70.3%
5 | B5 | 70.5%
6 | B6 | 36.9%
7 | B7 | 71.1%
8 | B8 | 79.2%
9 | B9 | 37.2%
10 | B10 | 69.4%
11 | B11 | 76%
12 | B12 | 75.3%
13 | B13 | 81.5%
14 | B14 | 79.1%
15 | B15 | 79.9%
16 | B16 | 82.4%
17 | B17 | 38%
18 | B18 | 37.1%
19 | B19 | 72%
20 | B20 | 80%
